Assay results published in patent publication US20150299277A1, “AGENT FOR TREATING OR PREVENTING SYSTEMIC INFLAMMATORY RESPONSE SYNDROME” (THE UNIVERSITY OF TOKYO, priority 2012, published 2015).

Molecular target: recombinant human histone H4 (human) (UniProt P62805)
Test: cell-based or functional assay

aggregation stoichiometry (protein left after removal of the aggregate, SYPRO Ruby) (mol histone H4 per mol N-terminal domain): 2
Substance: Escherichia coli-expressed His-tagged N-terminal domain human PTX3 (18-178 amino acids), wild-type (from UniProt P26022 18-178)
